Source: patent publication US20110118447A1
Substitutions are numbered along the chain they refer to. Names may count otherwise. Values belong to the molecule of their own block, whether it stands above or below them.

What was measured:
[1] = target: binding partner (antigen) of ING-1; assay: Biacore, internal control
[2] = target: binding partner (antigen) of ING-1, not given; assay: Biacore; internal control identical to original
[3] = target: binding partner of C5A (XPA23); assay: Biacore; internal control, L96 L is identical to the original C5A (XPA23)
[4] = target: binding partner of C5A (XPA23); assay: Biacore (K-off), clones identical to parent C5A (XPA23)
[5] = target: binding partner of C5A (XPA23); assay: Biacore, mutant vs original C5A (XPA23)

fold difference in affinity vs original [1]: 1.38 fold
Molecule: ING-1 (original, unmodified variable domain) (antibody)

fold difference in affinity vs original [2]: 1.38 fold
Molecule: ING-1 antibody variable domain (original, unmodified)

fold difference in affinity in comparison to original [3]: 1.16 fold | mean fold affinity of internal controls vs original [4]: 1.03 fold
B1: C5A (XPA23) (antibody, V domains shown)
VH: EVQLLESGGGLVQPGGSLRLSCAASGFTFSKYFMFWVRQAPGKGLEWVSVISPSGGMTRYADSVKGRFTISRDNSKNTLYLQMNSLRAEDTAVYYCARVGYGGNSDYWGQGTLVTVSS
VL: DIQMTQSPSSVSASVGDRLTIICRASQDINRWLAWYQQTPGNAPKLLIHSATSLQSGVPSRFSGSGSGTDFTLTINSLQPEDFATYYCQQADSFPLTFGGGTKVEIK

fold difference in affinity in comparison to original [5]: 0.95 fold
B2: C5A (XPA23) light chain variable region S53T (antibody, V domains shown)
VH: B1 VH
VL: B1 VL with S53T

fold difference in affinity in comparison to original [5]: 0.26 fold
B3: C5A (XPA23) light chain variable region D92G (antibody, V domains shown)
VH: B1 VH
VL: B1 VL with D92G

fold difference in affinity in comparison to original [5]: 0.55 fold
B4: C5A (XPA23) light chain variable region F94L (antibody, V domains shown)
VH: B1 VH
VL: B1 VL with F94L

fold difference in affinity in comparison to original [5]: 0.67 fold
B5: C5A (XPA23) light chain variable region A91T (antibody, V domains shown)
VH: B1 VH
VL: B1 VL with A91T

fold difference in affinity in comparison to original [5]: 1.42 fold
B6: C5A (XPA23) light chain variable region S53I (antibody, V domains shown)
VH: B1 VH
VL: B1 VL with S53I

fold difference in affinity in comparison to original [5]: 0.17 fold
B7: C5A (XPA23) light chain variable region F94P (antibody, V domains shown)
VH: B1 VH
VL: B1 VL with F94P

fold difference in affinity in comparison to original [5]: 0.75 fold
B8: C5A (XPA23) light chain variable region S93G (antibody, V domains shown)
VH: B1 VH
VL: B1 VL with S93G

fold difference in affinity in comparison to original [5]: 0.88 fold
B9: C5A (XPA23) light chain variable region F94I (antibody, V domains shown)
VH: B1 VH
VL: B1 VL with F94I

fold difference in affinity in comparison to original [5]: 0.67 fold
B10: C5A (XPA23) light chain variable region L96I (antibody, V domains shown)
VH: B1 VH
VL: B1 VL with L96I

fold difference in affinity in comparison to original [5]: 0.99 fold
B11: C5A (XPA23) light chain variable region S53L (antibody, V domains shown)
VH: B1 VH
VL: B1 VL with S53L

fold difference in affinity in comparison to original [5]: 1.16 fold
B12: C5A (XPA23) light chain variable region S93A (antibody, V domains shown)
VH: B1 VH
VL: B1 VL with S93A

fold difference in affinity in comparison to original [5]: 1.07 fold
B13: C5A (XPA23) light chain variable region S53A (antibody, V domains shown)
VH: B1 VH
VL: B1 VL with S53A

fold difference in affinity in comparison to original [5]: 0.51 fold
B14: C5A (XPA23) light chain variable region A91V (antibody, V domains shown)
VH: B1 VH
VL: B1 VL with A91V

fold difference in affinity in comparison to original [5]: 1.03 fold
B15: C5A (XPA23) light chain variable region S53G (antibody, V domains shown)
VH: B1 VH
VL: B1 VL with S53G

fold difference in affinity in comparison to original [5]: 3.83 fold
B16: C5A (XPA23) light chain variable region P95A (antibody, V domains shown)
VH: B1 VH
VL: B1 VL with P95A

fold difference in affinity in comparison to original [5]: 3.81 fold
B17: C5A (XPA23) light chain variable region S93V (antibody, V domains shown)
VH: B1 VH
VL: B1 VL with S93V

fold difference in affinity in comparison to original [5]: 0.14 fold
B18: C5A (XPA23) light chain variable region D92L (antibody, V domains shown)
VH: B1 VH
VL: B1 VL with D92L

fold difference in affinity in comparison to original [5]: 1.35 fold
B19: C5A (XPA23) light chain variable region S93I (antibody, V domains shown)
VH: B1 VH
VL: B1 VL with S93I

fold difference in affinity in comparison to original [5]: 4.92 fold
B20: C5A (XPA23) light chain variable region S53P (antibody, V domains shown)
VH: B1 VH
VL: B1 VL with S53P

fold difference in affinity in comparison to original [5]: 0.39 fold
B21: C5A (XPA23) light chain variable region A91L (antibody, V domains shown)
VH: B1 VH
VL: B1 VL with A91L

fold difference in affinity in comparison to original [5]: 1.42 fold
B22: C5A (XPA23) light chain variable region S53V (antibody, V domains shown)
VH: B1 VH
VL: B1 VL with S53V

fold difference in affinity in comparison to original [5]: 0.34 fold
B23: C5A (XPA23) light chain variable region D92T (antibody, V domains shown)
VH: B1 VH
VL: B1 VL with D92T

fold difference in affinity in comparison to original [5]: 1.47 fold
B24: C5A (XPA23) light chain variable region S93T (antibody, V domains shown)
VH: B1 VH
VL: B1 VL with S93T

fold difference in affinity in comparison to original [5]: 0.26 fold
B25: C5A (XPA23) light chain variable region L96A (antibody, V domains shown)
VH: B1 VH
VL: B1 VL with L96A

fold difference in affinity in comparison to original [5]: 0.33 fold
B26: C5A (XPA23) light chain variable region D92I (antibody, V domains shown)
VH: B1 VH
VL: B1 VL with D92I

fold difference in affinity in comparison to original [5]: 1.08 fold
B27: C5A (XPA23) light chain variable region S93L (antibody, V domains shown)
VH: B1 VH
VL: B1 VL with S93L

fold difference in affinity in comparison to original [5]: 0.2 fold
B28: C5A (XPA23) light chain variable region F94V (antibody, V domains shown)
VH: B1 VH
VL: B1 VL with F94V

fold difference in affinity in comparison to original [5]: 0.06 fold
B29: C5A (XPA23) light chain variable region L96T (antibody, V domains shown)
VH: B1 VH
VL: B1 VL with L96T

fold difference in affinity in comparison to original [5]: 0.4 fold
B30: C5A (XPA23) light chain variable region D92A (antibody, V domains shown)
VH: B1 VH
VL: B1 VL with D92A
